Paper PMC9952706

Molecular target: T1, AdpA (His-tagged) (Streptomyces coelicolor M145) (UniProt Q9L062)
T1 sequence: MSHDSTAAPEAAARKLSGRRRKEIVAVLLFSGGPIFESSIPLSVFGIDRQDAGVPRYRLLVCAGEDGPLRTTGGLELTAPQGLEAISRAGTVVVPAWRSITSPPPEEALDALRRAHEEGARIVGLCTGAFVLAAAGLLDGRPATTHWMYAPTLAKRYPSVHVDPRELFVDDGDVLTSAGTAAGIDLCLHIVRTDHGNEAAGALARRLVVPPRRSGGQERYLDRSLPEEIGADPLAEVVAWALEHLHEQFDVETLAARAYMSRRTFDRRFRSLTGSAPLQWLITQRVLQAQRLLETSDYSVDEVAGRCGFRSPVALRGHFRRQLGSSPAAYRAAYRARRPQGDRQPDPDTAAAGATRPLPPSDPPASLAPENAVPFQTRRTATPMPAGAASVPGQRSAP
Assay: EMSA
Conditions: EMSA: 20 mM Tris-HCl pH 8.0, 2 mM EDTA, 20 mM KCl, 0.5 mM DTT, 4% Ficoll-400, 2 µg poly(dI-dC), room temperature, 25 min; 20 nM probe

| Sequence | binding |
| --- | --- |
| GCGGCAGATCAGGACCCTCCAGGACTTCGGGTTCGACCTGGAGGAGACCCGCCCCTTCGTGGAGTGCCTGCGCGCCGGGCACCCGGAGGGCGACTCCTGTCCGGCGTCCCTCGTGGTCTACCGGCGCAAGCTGGCCGAGCTGGACACGCTGATCGAGCAGCTCACGTCGGTGCGCGCGCAGGTCGCCGCACAGCTGACGCGGGCCGAGGCGGCGGCTCCGGGGGGTCCGGAGCCCAAGTGCGAACTGGGAGGACACGGATGAAGACCAGCGGGGTGCCCGAGGTGACGGACGCGGACTT (double strand) [trxA2 (sco5438) promoter probe] | binds |
| TCATGGGCGCGCGTCCTGCGCACGCCGCCGGTTCGGTACTCCGAAGGTGCAGCGTCCGCGGAGCCGCGGAGATTCCCGCCCACCGTCGCATTTCGGCCACGCGAGGGCCCGGCGAGTGATGAGGATCTCGCCGCACACGGGCACCAAGGCTGGTA (double strand) [trxA5 (sco1084) promoter probe] | binds |
